Experimental data from patent US7438916B2, “Therapeutic target for protozoal diseases” (priority 2005, dated 2008).

Assays:
HepG2 cells [1] = test: Liver cell binding inhibition assay with glycosaminoglycans; format: cell-based, human; conditions: FIG. 6
Procedure: Liver Cell binding assay: The binding of proteins was assayed on HepG2 cells as described previously (1, 31). Briefly, cells were plated at a density of 25,000 cells/well, in a 96 well plate, 36 hours before the start of the experiment. The cells were fixed with paraformaldehyde, blocked with 1% BSA, followed by the addition of equimolar concentrations of recombinant proteins. Bound protein was detected using anti-polyhistidine tag monoclonal antibody (1:10,000) and anti-mouse antibody conjugated to alkaline phosphatase (1:2000). Amount of bound protein was detected by using 4-methylumbelliferyl phosphate, a fluorescent substrate, and measurement of fluorescence using a fluorescent plate reader (Molecular Devices, CA) with excitation and emission set at 350 nm and 460 nm respectively. Results are shown as mean±standard deviation of mean of a representative experiment performed in triplicate. Binding inhibition assays were performed by combining the recombinant proteins with increasing amounts of glycosaminoglycans and incubating at 37° C. for 15 min. For enzyme treatment, cells were incubated with different concentrations of Heparinase I or Chondroitinase ABC for 90 minutes at 37° C. as previously described (31), before the addition of proteins. The bound protein was assayed as described above. […]

FRAP = target: T1, FRAP (Plasmodium falciparum, UniProt Q8IL04); test: Inhibition of FRAP-mediated hemozoin formation; format: biochemical, P. falciparum; conditions: different concentrations, FIG. 14
T1 construct: The activity requires the complete protein as two truncated variants of FRAP; made in house; host or cells: E. coli BL21
T1 sequence (Q8IL04 whole entry, the tested form may be a part): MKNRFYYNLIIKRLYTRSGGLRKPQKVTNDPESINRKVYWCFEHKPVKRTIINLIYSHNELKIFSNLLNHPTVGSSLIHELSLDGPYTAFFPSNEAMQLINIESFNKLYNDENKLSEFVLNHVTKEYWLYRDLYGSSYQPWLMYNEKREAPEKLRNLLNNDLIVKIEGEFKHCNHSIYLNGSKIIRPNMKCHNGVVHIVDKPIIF
Procedure: FIG. 14. Inhibition of FRAP-mediated hemozoin formation by Chloroquine. Hemozoin formation was investigated in the absence or presence of different concentrations of chloroquine, an antimalarial drug with high affinity for heme.
(§1) The standard assay contained in a total volume of 1.0 ml: 500 mM sodium acetate pH 5.2, 300 nmol/ml hemin-Cl (as substrate) and 500 pmol/ml FRAP, as the source of heme polymerase activity. The amount of FRAP added was chosen such that 50% of the substrate was converted into product (insoluble hemozoin) during the assay. The reaction was initiated by protein addition and allowed to proceed for 16 hours at 37 degree. The reaction was terminated by adding 0.01 ml of 10% SDS solution. The reaction tube was centrifuged at 13,000 rpm for 15 minutes at 23 degrees and the supernatant was carefully removed. The pellet, which contained the polymerized and insoluble hemozoin, was resuspended in 1 ml of 0.1 M sodium bicarbonate pH 9.1 containing 2.5% SDS. […] The pellet obtained after final washing was dissolved in 0.3 ml of 0.1 N NaOH and the absorbance of the solution was measured at 405 nm using a spectrophotometer. Amount of heme polymerized was calculated utilizing a standard curve, prepared by dissolving known amounts of commercially available beta-hematin in 0.1 N NaOH. […]

HepG2 cells [2] = test: Binding to liver cells pretreated with glycosaminoglycan cleaving enzyme; format: cell-based, human; conditions: for Inhibition of Binding (%): 100 nM protein
Procedure: (§2) Liver Cell binding assay: The binding of proteins was assayed on HepG2 cells as described previously (1, 31). Briefly, cells were plated at a density of 25,000 cells/well, in a 96 well plate, 36 hours before the start of the experiment. The cells were fixed with paraformaldehyde, blocked with 1% BSA, followed by the addition of equimolar concentrations of recombinant proteins. Bound protein was detected using anti-polyhistidine tag monoclonal antibody (1:10,000) and anti-mouse antibody conjugated to alkaline phosphatase (1:2000). Amount of bound protein was detected by using 4-methylumbelliferyl phosphate, a fluorescent substrate, and measurement of fluorescence using a fluorescent plate reader (Molecular Devices, CA) with excitation and emission set at 350 nm and 460 nm respectively. Results are shown as mean±standard deviation of mean of a representative experiment performed in triplicate. Binding inhibition assays were performed by combining the recombinant proteins with increasing amounts of glycosaminoglycans and incubating at 37° C. for 15 min. For enzyme treatment, cells were incubated with different concentrations of Heparinase I or Chondroitinase ABC for 90 minutes at 37° C. as previously described (31), before the addition of proteins. The bound protein was assayed as described above.
The involvement of HSPG as a receptor was further verified by evaluating the binding of the protein on liver cells that were pretreated with specific glycosaminoglycan-cleaving enzymes. Cells were pre-treated with heparinase I or chondroitinase ABC followed by the evaluation of binding activity of FRAP and FRAP2. Heparinase I selectively removes heparan sulfate while chondroitinase ABC cleaves chondroitin sulfate A, B and C type sugars from the liver cell surface. Both, FRAP and FRAP2 lost 50% of their binding activity on heparinase I treated cells (Table 4) confirming the involvement of a heparin-based receptor on the liver cell surface.

[3] = test system: P. falciparum sporozoites; test: Sporozoite invasion assay; format: cell-based, P. falciparum (strain NF54); conditions: versus culture medium
Procedure: Sporozoite Invasion Assay: Invasion assay was performed with HepG2 (Human hepatoma) cells as previously described (31). Briefly, HepG2 cells were plated (50,000 cells/0.3 ml) and incubated overnight at 37° C. in a CO2 incubator. Next day, medium was removed and 50 μl of diluted FRAP proteins (final concentrations: 20 and 10 μg/ml) or anti-FRAP2 antibodies (40 μg/ml final concentration) were added per well. Anti CS monoclonal antibody NFS1 was used at a final concentration of 100 μg/ml. All protein concentrations and serum dilutions were evaluated in triplicate. This was immediately followed by the addition of 20,000 sporozoites in 50 μl of medium to each well. P. falciparum (strain NF54) sporozoites were obtained from the salivary glands of An. stephensi mosquitoes as described by Ozaki (33). The sporozoites were allowed to invade liver cells for three hours followed by the washing of cells with PBS at pH 7.4. Subsequently, the cells were fixed with cold methanol. Sporozoites were visualized by immunostaining using NFS1 as primary antibody and anti-mouse IgG-peroxidase conjugate. The slides were mounted with Paramount and only intracellular sporozoites were counted as described (31). Percentage inhibition of invasion was calculated with the following formula: [(Control-test)/control]×100 Results

heme = test: FRAP-mediated hemozoin formation assay; format: biochemical; conditions: result in words
Procedure: FIG. 8. FRAP-mediated neutralization of toxic heme into non-toxic Hemozoin. 500 pmoles of each of the protein was incubated with different concentrations of free heme at 37° C. for 16 hours, under acidic conditions (500 mM Sodium acetate pH 5.2). After 16 hours, free heme was removed by washing and the insoluble pellet representing hemozoin was solubalized in sodium hydroxide and estimated using a spectrophotometer.
as §1, with “degree.” for “degree. The reaction was terminated by adding 0.01 ml of 10% SDS solution. The reaction tube was centrifuged at 13,000 rpm for 15 minutes at 23 degrees and the supernatant was carefully removed. The pellet, which contained the polymerized and insoluble hemozoin, was resuspended in 1 ml of 0.1 M sodium bicarbonate pH 9.1 containing 2.5% SDS.”
Furthermore, the hemozoin formation was also evaluated with truncated variants and point mutants of FRAP to not only describe its structural requirements, but also pin point the residues that are involved in the polymerization process.

HepG2 cells [4] = test: Liver cell binding assay; format: cell-based, human; conditions: FIG. 5
Procedure: as §2
Therefore, binding activity was probed using a polyhistidine tag monoclonal antibody. […]

chondroitin sulfate A [reference compound]
inhibition of FRAP and FRAP2 binding to liver cells by the glycosaminoglycan (HepG2 cells [1]; highest concentration evaluated): no inhibition

CCN(CC)CCCC(C)Nc1ccnc2cc(Cl)ccc12 (centres unmarked) [Chloroquine, chloroquine]
inhibition of FRAP-mediated hemozoin formation (FRAP): inhibited heme polymerization in a dose dependent manner | inhibition of FRAP-mediated hemozoin formation (FRAP; listed as chloroquine): effectively inhibited

B1: FRAP2: truncated FRAP containing only amino acids 1-87, SEQ ID NO: 25 (protein, listed as Plasmodium falciparum)
chain: MKNRFYYNLIIKRLYTRSGGLRKPQKVTNDPESINRKVYWCFEHKPVKRTIINLIYSHNELKIFSNLLNHPTVGSSLIHELSLDGPY
Inhibition of Binding (%) (HepG2 cells [2]; cells pretreated with Heparinase I 1.25 U/ml for 90 minutes): 42.3 ± 10.4% | Inhibition of Binding (%) (HepG2 cells [2]; cells pretreated with Heparinase I 2.50 U/ml for 90 minutes): 41.4 ± 1.5% | Inhibition of Binding (%) (HepG2 cells [2]; cells pretreated with Heparinase I 5.00 U/ml for 90 minutes): 49.4 ± 9.2% | loss of binding activity on heparinase I treated cells (HepG2 cells [2]; text summary of Table 4): 50% | % Inhibition of invasion of HepG2 cells by P. falciparum sporozoites ([3]; 10 μg/ml): 88.1 ± 4.6% | % Inhibition of invasion of HepG2 cells by P. falciparum sporozoites ([3]; 20 μg/ml): 92.4% | reduction of binding activity in the presence of free heparin (HepG2 cells [1]; HepG2 cells): 60% | hemozoin formation (heme polymerization) activity (heme): did not show any hemozoin formation | loss of binding activity in comparison to the full length protein (HepG2 cells [4]): 50% | binding on liver cells (HepG2 cells [4]; five concentrations of recombinant protein): only half the strength

B2: FRAP from rodent malaria parasite P. yoelii: P. yoelii FRAP ortholog, SEQ ID NO: 9 (protein, listed as Plasmodium yoelii)
chain: MKKKLYNLVLKRSYTRSGGLRKPQKVTNDPESINRKVYWCFEHKPVRRTVINLIFSHNELKNFSTLLRNTNASSSLIHELSLEGPYTGFLPSDEALNLLSTNSLNKLYKDDNKMSEFVLNHFTKGLWMYRDLYGSSYQPWLMYNEKREAPEKIQTLVNNDIIVKIEGEFKNCDHSIYLNEAKIIRPNMKCHNGIIHIIDKPIIF
hemozoin formation (heme polymerization) activity (heme): demonstrated
